Biological target: the molecule itself
Assay: Blue-Native-PAGE, oligomeric conformation (self-association of identical chains)
Source text: Comparison of the native molecular weight (oligomeric conformation) between single purified zearalenone-cleaving polypeptides was done via Blue-Native-PAGE. Dilutions of the elutes were supplied with not denaturating loading dye (e.g. 2× loading dye: 0.126 M tris(hydroxymethyl)aminomethan/hydrochloric acid pH 6.8, 20.0% glycerol, 4.0% Coomassie Blue G-250) and separated on a 4-15% polyacrylamid gel under native conditions (e.g. Mini-PROTEAN® Tetra Cell System, 1658004EDU+4-15% Mini-PROTEAN® TGX™ Precast Protein Gels, 4561083EDU, Bio-Rad Laboratories GmbH) (5× Anode Buffer: 0.125 M Tris(hydroxymethyl)aminomethane, 0.960 M Glycine, 1× Kathode Buffer: Anode Buffer+0.02% Coomassie Blue G250; 200 V, 40 minutes). The peptide bands were visualized by Coomassie staining. The oligomeric state of selected zearalenone-cleaving polypeptides was determined by size exclusion chromatography, SEC-MALS or X-Ray crystallography. Homo-dimers (e.g. SEQ ID NO. 1) migrated faster across the BN-PAGE gel matrix, while homo-tetramers (e.g. SEQ ID NO. 2-35) were retained in the gel matrix to a higher extent. The oligomeric conformation of the zearalenone-cleaving polypeptides was determined relatively to the migration of homo-dimeric and homo-tetrameric peptides.

B1: parent alpha/beta hydrolase of SEQ ID NO: 1 (enzyme)
chain: MTDQSPETRDIFVPHAFEEQQVDLGEVVMNYVEAGSADHPALLLLPEQTGSWWSYEPVIGLLAESFHVFAVDIRGQGRSTWTPKRYSLDNFGNDLVRFISLVVKRPVIVSGNSSGGVLAAWLSAYAMPGQIRAALCEDTPFFASELVPAHGHSVRQAAGPAFELYRNFLGDQWSVADWDGFAAAAKASPSKIMSLFPSSDEPPQNLKEYDPEWARAFFEGTVALHCPHDLMLSQVKTPILITHHARAVDPHSGDLLGALSDFQAERAQAIIESAGVPVEYASFPDALHMMHQFEPERFAEVLTSWVARLPADTPGAHHHHHH
notes: homo-dimer; also called wildtype parent alpha/beta hydrolase; zearalenone-cleaving polypeptide
**Q.** Does B1 bind?
**A.** binds

From patent US20230383269A1 (DSM AUSTRIA, published 2023)
